Measurements from paper PMC2132664 (The Journal of Cell Biology, 1998).

B1: DEL K560–GFP (aa 341–370 of the neck coiled coil deleted) (domain or fragment, human, UniProt P33176 1-560, looked up)
chain: MADLAECNIKVMCRFRPLNESEVNRGDKYIAKFQGEDTVVIASKPYAFDRVFQSSTSQEQVYNDCAKKIVKDVLEGYNGTIFAYGQTSSGKTHTMEGKLHDPEGMGIIPRIVQDIFNYIYSMDENLEFHIKVSYFEIYLDKIRDLLDVSKTNLSVHEDKNRVPYVKGCTERFVCSPDEVMDTIDEGKSNRHVAVTNMNEHSSRSHSIFLINVKQENTQTEQKLSGKLYLVDLAGSEKVSKTGAEGAVLDEAKNINKSLSALGNVISALAEGSTYVPYRDSKMTRILQDSLGGNCRTTIVICCSPSSYNESETKSTLLFGQRAKTIKNTVCVNVELTAEQWGETVPIDEQFDKEKANLEAFTVDKDITLTNDKPATAIGVIGNFTDAERRKCEEEIAKLYKQLDDKDEEINQQSQLVEKLKTQMLDQEELLASTRRDQDNMQAELNRLQAENDASKEEVKEVLQALEELAVNYDQKSQEVEDKTKEYELLSDELNQKSATLASIDAELQKLKEMTNHQKKRAAEMMASLLK
B2: STABLE COIL K560–GFP (aa 343–370 replaced by four repeats of EIEALKA) (domain or fragment, human)
chain: MADLAECNIKVMCRFRPLNESEVNRGDKYIAKFQGEDTVVIASKPYAFDRVFQSSTSQEQVYNDCAKKIVKDVLEGYNGTIFAYGQTSSGKTHTMEGKLHDPEGMGIIPRIVQDIFNYIYSMDENLEFHIKVSYFEIYLDKIRDLLDVSKTNLSVHEDKNRVPYVKGCTERFVCSPDEVMDTIDEGKSNRHVAVTNMNEHSSRSHSIFLINVKQENTQTEQKLSGKLYLVDLAGSEKVSKTGAEGAVLDEAKNINKSLSALGNVISALAEGSTYVPYRDSKMTRILQDSLGGNCRTTIVICCSPSSYNESETKSTLLFGQRAKTIKNTVCVNVELTAEQWKKEIEALKAEIEALKAEIEALKAEIEALKAGETVPIDEQFDKEKANLEAFTVDKDITLTNDKPATAIGVIGNFTDAERRKCEEEIAKLYKQLDDKDEEINQQSQLVEKLKTQMLDQEELLASTRRDQDNMQAELNRLQAENDASKEEVKEVLQALEELAVNYDQKSQEVEDKTKEYELLSDELNQKSATLASIDAELQKLKEMTNHQKKRAAEMMASLLK

Target: the molecule itself
Assay: single-spot fluorescence intensity

| Protein | stoichiometry N |
| --- | --- |
| B1 | 2 |
| B2 | 2 |
